Key:
[1] = target: T1, CLDN 18.2 expressed on stably transfected cells (HEK293T-CLDN 18.2, MiaPaCa-CLDN 18.2) (human); experiment: cell-based or functional assay
[2] = target: T2, CLDN 18.2 fused with GFP at its C-terminal, on MCF7 cells (MCF7-CLDN 18.2) (human); experiment: cell-based or functional assay
[3] = target: T1, CLDN 18.2 expressed on stably …; experiment: cell-based or functional assay; remark: listed apart in the source
[4] = target: T2, CLDN 18.2 fused with GFP at its …; experiment: cell-based or functional assay; remark: listed apart in the source
[5] = target: claudin 18.2 (CLDN 18.2), recombinant protein (human); experiment: direct ELISA, coated CLDN 18.2 (FIG. 28A)
[6] = target: claudin 18.2 (CLDN 18.2), recombinant protein (human); experiment: direct ELISA, coated recombinant CLDN 18.2
Source text: ELISA assay was employed to determine the binding properties of the bispecific antibodies to their antigens. […] The wells were then reacted with goat anti human IgG antibody conjugated with horseradish peroxidase (HRP).

[7] = target: claudin 18.2 (CLDN 18.2), recombinant protein (human); experiment: direct ELISA, coated recombinant CLDN 18.2 (FIG. 7A)

T1 sequence (chain, as listed by the source limits assumed): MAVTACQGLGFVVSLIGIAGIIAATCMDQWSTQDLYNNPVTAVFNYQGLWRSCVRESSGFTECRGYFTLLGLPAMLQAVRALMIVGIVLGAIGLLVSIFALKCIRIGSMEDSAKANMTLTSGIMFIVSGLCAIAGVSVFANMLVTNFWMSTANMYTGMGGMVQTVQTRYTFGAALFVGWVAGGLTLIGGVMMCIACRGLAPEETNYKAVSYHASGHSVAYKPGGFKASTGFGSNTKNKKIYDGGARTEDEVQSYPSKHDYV
Sequence of claudin 18.2 (CLDN 18.2), recombinant protein (human) (chain, as listed by the source limits assumed): as above
T2 sequence (chain, as listed by the source): as the sequence (chain, as listed by the source limits assumed) above

B1: h5C9ob, monospecific parent anti-CLDN 18.2 monoclonal antibody (IgG) (antibody, V domains shown)
VH: EVQLVESGGGLVQPGGSLRLSCAVSGYTFSMNWVRQAPGKGLEWVAWINMYTGEPTYADDFKGRFTISRDDSKNTLYLQMNSLRAEDTAVYYCARLYNGNSLDYWGQGTLVTVSS
VL: DIQMTQSPSSLSASVGDRVTITCKSSQSLLNSGNQKSYLTWYQQKPGKAPKLLIYWASTLESGVPSRFSGSGSGTDYTLTISSLQPEDFATYYCQNAYFFPFTFGQGTKVEIKR
notes: Whole human IgG1 produced as described under 'Production of Recombinant Antibodies'
ADCC reporter assay, EC50 (FIG. 18) [1]: 0.0561 nM
CDC against Mia Paca-CLDN 18.2 cells, EC50 (FIG. 17B) [1]: 0.52 nM
ADCC reporter assay, EC50 (FIG. 24A) [2]: 0.00443 nM
ADCC Reporter in HEK293-CLDN18.2, EC50 [3]: 0.056 nM
CDC in HEK293-CLDN 18.2, EC50 [3]: 0.43 nM
CDC in MiaPaCa-CLDN 18.2, EC50 [3]: 0.52 nM
ADCC Reporter in MCF7-CLDN 18.2, EC50 [4]: 0.006 nM
Kd [5]: 0.0819 nM
Kd [6]: 0.13 nM
Kd [7]: 0.133 nM
